± gives the standard error. For some assays here: This sample holds only a part of the variants without activity.
B1: glmS ribozyme (parent)
chain: AUAAAAGCGCCAGAACUACAGAAAUGUAGUUGACGAGGAGGAGGUUUAUCGAAUUUUCGGCGGAUGCCUCCAAA

Columns and labels:
Conditions in all cases: with glucosamine-6-phosphate
glucosamine-6-phosphate [1] = variants of: B1; test: kcat; higher = faster cleavage; RNA array
Outline: (§1)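 Barcoded ribozyme variants were transcribed in situ on sequenced MiSeq chips by E. coli RNA polymerase. At 37 °C, a hybridised Cy3 probe tracked them while glucosamine-6-phosphate (40 μM to 10 mM) in HEPES/KCl/Mg(OAc)2 buffer flowed in and tiles were imaged over ~14 h. Per-tile medians of signals normalised to baseline and to non-cleaving reference variants were fit to one- or two-exponential decays, giving kobs. kcat and KM came from weighted Michaelis–Menten fits across concentrations.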

glucosamine-6-phosphate [2] = variants of: B1; test: KM; higher = weaker cofactor use; RNA array
Outline: as §1

glucosamine-6-phosphate [3] = variants of: B1; test: self-cleavage kobs at 160 uM GlcN6P; higher = faster cleavage; RNA array
Outline: as §1

glucosamine-6-phosphate [4] = variants of: B1; test: self-cleavage kobs at 10000 uM GlcN6P; higher = faster cleavage; RNA array
Outline: as §1

glucosamine-6-phosphate [5] = variants of: B1; test: self-cleavage kobs at 40 uM GlcN6P; higher = faster cleavage; RNA array
Outline: as §1

glucosamine-6-phosphate [6] = variants of: B1; test: self-cleavage kobs at 640 uM GlcN6P; higher = faster cleavage; RNA array
Outline: as §1

glucosamine-6-phosphate [7] = variants of: B1; test: self-cleavage kobs at 2500 uM GlcN6P; higher = faster cleavage; RNA array
Outline: as §1

Variant	kcat (glucosamine-6-phosphate [1]) [s⁻¹]	KM (glucosamine-6-phosphate [2]) [µM]	self-cleavage kobs at 160 uM GlcN6P (glucosamine-6-phosphate [3]) [s⁻¹]	self-cleavage kobs at 10000 uM GlcN6P (glucosamine-6-phosphate [4]) [s⁻¹]	self-cleavage kobs at 40 uM GlcN6P (glucosamine-6-phosphate [5]) [s⁻¹]	self-cleavage kobs at 640 uM GlcN6P (glucosamine-6-phosphate [6]) [s⁻¹]	self-cleavage kobs at 2500 uM GlcN6P (glucosamine-6-phosphate [7]) [s⁻¹]
G32A U57A	3.77e-05 ± 3.1e-06	3000 ± 970	< 1e-05	2.89e-05 ± 9.1e-06	–	–	–
C10U C50G C70G	–	–	–	–	5.33e-05 ± 1.6e-05	–	–
A14C C68G U69A	–	–	–	–	< 1e-05	–	–
G13U A64G	0.00128 ± 0.00031	4210 ± 1600	4.62e-05 ± 1.2e-05	0.000847 ± 8.3e-05	–	0.000149 ± 1.9e-05	0.000657 ± 6.9e-05
G37C G41U U46C	–	–	–	< 1e-05	< 1e-05	–	–
U54G U56A G63U	–	1560 ± 740	–	–	–	–	–
A39G C58U	7.06e-05 ± 1.1e-06	2990 ± 150	–	5.43e-05 ± 8.5e-06	< 1e-05	–	3.24e-05 ± 1.1e-05
G32C U47C	–	–	< 1e-05	–	< 1e-05	–	–
C8G C50A C61G G63A C71G	–	–	–	0.000367 ± 0.00014	8.24e-05 ± 3.5e-05	–	–
A14C U46C	0.000346 ± 4.7e-05	1090 ± 350	5.14e-05 ± 1.9e-05	0.000326 ± 4.5e-05	–	0.000128 ± 2.4e-05	–
G38U G59C	–	–	–	–	< 1e-05	< 1e-05	< 1e-05
A15G U47A	–	–	–	0.03 ± 0.0073	0.000718 ± 0.00011	–	0.0116 ± 0.0042
G44A A48G	–	–	< 1e-05	< 1e-05	< 1e-05	< 1e-05	< 1e-05
G44A G63U	–	–	< 1e-05	< 1e-05	< 1e-05	< 1e-05	< 1e-05
C10U G32C C68A	–	–	–	–	< 1e-05	–	–
U47A A64C	0.000113 ± 8.6e-06	720 ± 280	–	0.000109 ± 1.1e-05	–	6.51e-05 ± 1.8e-05	7.85e-05 ± 1.3e-05
A14U G43C U69A	–	–	–	< 1e-05	< 1e-05	–	–
A14G G62U	–	–	–	< 1e-05	< 1e-05	–	< 1e-05
U55G C61A G66C C70A	–	–	0.000108 ± 2.1e-05	–	0.000162 ± 4.4e-05	0.000153 ± 3.1e-05	8.3e-05 ± 1.7e-05
A12U C50G	–	–	0.000613 ± 0.00026	0.000147 ± 4.2e-05	4.38e-05 ± 1.4e-05	–	6.46e-05 ± 2.2e-05
G7U A48U	–	–	< 1e-05	< 1e-05	< 1e-05	< 1e-05	< 1e-05
G13C C50G G63A C70G	–	–	–	0.000144 ± 4.2e-05	0.000201 ± 7.2e-05	–	–

Variant	kcat (glucosamine-6-phosphate [1]) [s⁻¹]	KM (glucosamine-6-phosphate [2]) [µM]	self-cleavage kobs at 160 uM GlcN6P (glucosamine-6-phosphate [3]) [s⁻¹]	self-cleavage kobs at 10000 uM GlcN6P (glucosamine-6-phosphate [4]) [s⁻¹]	self-cleavage kobs at 40 uM GlcN6P (glucosamine-6-phosphate [5]) [s⁻¹]	self-cleavage kobs at 640 uM GlcN6P (glucosamine-6-phosphate [6]) [s⁻¹]	self-cleavage kobs at 2500 uM GlcN6P (glucosamine-6-phosphate [7]) [s⁻¹]
G29A G37C U69C	–	–	–	< 1e-05	< 1e-05	–	–
G38A U45C	–	–	< 1e-05	< 1e-05	< 1e-05	< 1e-05	< 1e-05
G43U A64G	0.000133 ± 1.2e-05	6370 ± 1300	–	8.1e-05 ± 8.2e-06	–	–	3.85e-05 ± 8.6e-06
G43U A64U	–	–	–	< 1e-05	< 1e-05	< 1e-05	< 1e-05
A39G C71U	–	370 ± 140	0.00396 ± 0.00059	0.0284 ± 0.0069	0.00144 ± 0.00017	0.00783 ± 0.0012	0.0119 ± 0.0027
A12C G63A	–	–	< 1e-05	< 1e-05	< 1e-05	< 1e-05	< 1e-05
C10A U46G C68G	–	–	–	6.66e-05 ± 2.2e-05	0.000169 ± 4.8e-05	–	–
A12U C71U	0.0948 ± 0.017	1790 ± 350	0.00891 ± 0.0017	0.0826 ± 0.025	0.00207 ± 0.00018	0.0214 ± 0.0049	0.0611 ± 0.02
A42C U45A C67A	–	–	–	–	< 1e-05	–	–
C16U G66A	–	1520 ± 640	0.00133 ± 0.00023	0.0329 ± 0.014	0.000448 ± 9.7e-05	0.00417 ± 0.00068	0.00873 ± 0.0019
U49A C68A	1.25e-05 ± 6e-06	–	–	< 1e-05	< 1e-05	–	–
U56A C68U	–	–	0.000404 ± 8.3e-05	0.00472 ± 0.00088	0.000143 ± 2.2e-05	0.000955 ± 0.00014	0.00101 ± 0.00018
U45G A52U	0.000421 ± 0.0001	–	< 1e-05	0.000189 ± 3e-05	< 1e-05	–	7.57e-05 ± 2e-05
U45G A52C	–	–	–	–	< 1e-05	–	–
G40U A48G G59U	–	–	< 1e-05	< 1e-05	< 1e-05	–	< 1e-05
A48G C67G	5.64e-05 ± 1.8e-05	–	< 1e-05	4.41e-05 ± 1.4e-05	–	3.36e-05 ± 1.6e-05	7.99e-05 ± 1.9e-05
C11A C34G	–	–	< 1e-05	< 1e-05	< 1e-05	< 1e-05	–
C8A G44C C70A	–	–	–	< 1e-05	< 1e-05	–	–
C11G G37U A53G	–	–	–	–	< 1e-05	–	–
G43U G44U	–	–	< 1e-05	< 1e-05	< 1e-05	< 1e-05	< 1e-05
A6G G35U	–	–	< 1e-05	< 1e-05	< 1e-05	< 1e-05	< 1e-05
C67A C71U	–	–	0.000151 ± 1.3e-05	0.00183 ± 0.00025	7.16e-05 ± 5.5e-06	0.000414 ± 4.1e-05	0.000679 ± 7.6e-05

Variant	kcat (glucosamine-6-phosphate [1]) [s⁻¹]	KM (glucosamine-6-phosphate [2]) [µM]	self-cleavage kobs at 160 uM GlcN6P (glucosamine-6-phosphate [3]) [s⁻¹]	self-cleavage kobs at 10000 uM GlcN6P (glucosamine-6-phosphate [4]) [s⁻¹]	self-cleavage kobs at 40 uM GlcN6P (glucosamine-6-phosphate [5]) [s⁻¹]	self-cleavage kobs at 640 uM GlcN6P (glucosamine-6-phosphate [6]) [s⁻¹]	self-cleavage kobs at 2500 uM GlcN6P (glucosamine-6-phosphate [7]) [s⁻¹]
A48G G51U	–	–	< 1e-05	–	< 1e-05	–	–
U54G C61G	1.78e-05 ± 5.8e-06	–	–	–	< 1e-05	–	–
G13C C16U	0.0002194 ± 1.1e-06	4190 ± 58	–	0.000155 ± 1.9e-05	–	–	8.19e-05 ± 2.5e-05
A12U A15C	0.00683 ± 0.003	–	–	0.0117 ± 0.0029	0.000955 ± 0.00021	0.0109 ± 0.0048	0.00385 ± 0.0017
G37C G38C G40U U55A	–	–	–	–	< 1e-05	–	< 1e-05
G32U G63U	–	–	–	< 1e-05	< 1e-05	–	< 1e-05
G7U G13U A53G	–	–	–	–	< 1e-05	–	–
G29C U47A	0.00173 ± 0.00071	–	7.89e-05 ± 1.6e-05	0.00158 ± 0.0002	4.95e-05 ± 1.1e-05	0.000293 ± 3.8e-05	0.000579 ± 8.4e-05
A12C A33C A39C	–	–	–	–	< 1e-05	–	–
G51A G62C C67A	–	–	–	< 1e-05	< 1e-05	–	–
A15C C16G G41A	–	–	–	–	< 1e-05	–	–
U30C G62C	–	–	–	< 1e-05	< 1e-05	< 1e-05	–
G29U A42C C58A C67G	–	–	–	–	< 1e-05	< 1e-05	< 1e-05
C8A C11G G38U G60A	–	–	< 1e-05	–	< 1e-05	< 1e-05	–
G32U A52G C68G	–	–	–	0.000398 ± 9.5e-05	0.000277 ± 9.2e-05	–	–
A6G U30C	–	–	< 1e-05	–	< 1e-05	–	–
A6G A52U	–	–	< 1e-05	–	< 1e-05	< 1e-05	–
G35C C67A	–	–	< 1e-05	< 1e-05	< 1e-05	< 1e-05	–
A12C A36U	–	56.2 ± 26	–	–	–	–	–
C58A U65A	1.58e-05 ± 1.9e-06	–	–	–	–	–	–
U31G G43U U54A	–	–	–	–	< 1e-05	–	–
G29C A39U	0.00205 ± 0.00072	–	6.75e-05 ± 1.6e-05	0.00153 ± 0.00022	5.54e-05 ± 1.3e-05	0.000323 ± 6.3e-05	0.000753 ± 0.00014

Variant	kcat (glucosamine-6-phosphate [1]) [s⁻¹]	KM (glucosamine-6-phosphate [2]) [µM]	self-cleavage kobs at 160 uM GlcN6P (glucosamine-6-phosphate [3]) [s⁻¹]	self-cleavage kobs at 10000 uM GlcN6P (glucosamine-6-phosphate [4]) [s⁻¹]	self-cleavage kobs at 40 uM GlcN6P (glucosamine-6-phosphate [5]) [s⁻¹]	self-cleavage kobs at 640 uM GlcN6P (glucosamine-6-phosphate [6]) [s⁻¹]	self-cleavage kobs at 2500 uM GlcN6P (glucosamine-6-phosphate [7]) [s⁻¹]
A6U A33C	–	–	< 1e-05	–	< 1e-05	< 1e-05	< 1e-05
C8U A39C G41A A42C C58G A64G G66A	–	–	–	< 1e-05	< 1e-05	–	–
G29U U31A	0.0048 ± 0.0017	3260 ± 1600	0.000159 ± 3.6e-05	0.00369 ± 0.00052	9.58e-05 ± 1.6e-05	0.000947 ± 0.00018	0.0019 ± 0.00044
G44C A52U	–	–	–	–	< 1e-05	–	–
G7A A52G	–	–	–	< 1e-05	< 1e-05	< 1e-05	–
C16U G38C A48G C50U U55G	–	–	–	< 1e-05	< 1e-05	–	–
A15G C68A C70U	–	–	–	–	< 1e-05	–	–
G29A U31C G35U G66A	–	–	–	–	< 1e-05	–	–
A12C C50U U54G	–	–	–	–	< 1e-05	–	–
G38U U65G	–	107 ± 46	–	–	–	–	–
C34U A39G	–	–	< 1e-05	< 1e-05	< 1e-05	< 1e-05	< 1e-05
G9C G51C	–	–	< 1e-05	< 1e-05	< 1e-05	< 1e-05	< 1e-05
A15U C34A A52U	–	–	–	< 1e-05	< 1e-05	–	–
G13C U54C	0.000135 ± 1.9e-05	2870 ± 1000	–	0.000107 ± 1.7e-05	–	–	5.89e-05 ± 1.2e-05
A6U C10A C11G A12C U54C	–	–	–	< 1e-05	< 1e-05	–	–
A12U U55A	–	–	0.00433 ± 0.0018	0.0587 ± 0.02	0.00252 ± 0.00039	0.0231 ± 0.0089	–
G62A G63U	–	359 ± 79	–	–	–	–	–
G32U G37U A39G	–	–	–	–	< 1e-05	–	< 1e-05
A48U C67U C70U	–	–	–	–	< 1e-05	–	< 1e-05

— the supplement of paper PMC7125110
